Measured values from US20250092124A1 (YUNNAN BAIYAO GROUP, published 2025).
Substitutions are numbered along the chain they refer to.

Tests used:
[1] = biological target: T1, GDF15-HIS (ACROBiosystems, CAT #: GD5-H5149) (human, UniProt Q99988 197-308); assay: cell-based or functional assay
T1 sequence (looked up): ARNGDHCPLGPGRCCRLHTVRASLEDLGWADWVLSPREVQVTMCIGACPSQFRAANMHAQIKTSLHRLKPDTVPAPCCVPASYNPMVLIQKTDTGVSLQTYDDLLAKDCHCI

[2] = biological target: T2, cynoGDF15-mFC (monkey (cyno); mouse, UniProt G7PWZ3 197-308); assay: ELISA, cynoGDF15-mFC coated
T2 construct: also called monkey GDF15 (cynoGDF15)
T2 sequence (looked up): T1 sequence (looked up) with H6R, R21H, A54E, T63M, S64N, I112V
Experimental: The experiment was performed as detailed in Example 2, except that the coating protein was cynoGDF15-mFC (GDF15: Genbank accession number EHH29815.1; mFC: Genbank accession number AAH31470.1), and the antibodies to be tested (the humanized antibodies), negative control antibody (hIgG1), and positive control antibodies Ponsegromab and AV380-hIgG1 were added to each well of the coated plate.

[3] = biological target: T3, GDF1 (R&D, 6937-GD-010) (UniProt P27539 254-372); assay: ELISA, GDF1 coated at 1 µg/ml, HRP-anti-human IgG
T3 sequence (looked up): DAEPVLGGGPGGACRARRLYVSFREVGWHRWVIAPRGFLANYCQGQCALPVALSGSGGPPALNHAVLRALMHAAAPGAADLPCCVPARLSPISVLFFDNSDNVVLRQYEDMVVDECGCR
Experimental: (§1) GDF15 (ACROBiosystems, GDS-HS149), GDF1 (R&D, 6937-GD-010), and GDF3 (R&D, 5754-G3-010) proteins were dissolved in PBS at a concentration of 1 μg/ml and were used to coat ELISA 96-well plate. On the next day, the 96-well plate was blocked with 2% BSA in PBS for 1 hour. After removing the blocking solution, GDF15 antibody 53E5 (hz), control antibody Ponsegromab and irrelevant hIgG1 were added at 4 μg/ml. After incubation at room temperature for 1 hour, the plate was washed, and then HRP-anti-human IgG was added. After incubation at room temperature for 1 hour, the HRP enzyme activity signal (OD450) was detected. The OD450 value is the relative signal of the antibody binding amount.

[4] = biological target: T4, GDF3 (R&D, 5754-G3-010) (UniProt Q9NR23 251-364); assay: ELISA, GDF3 coated at 1 µg/ml, HRP-anti-human IgG
T4 sequence (looked up): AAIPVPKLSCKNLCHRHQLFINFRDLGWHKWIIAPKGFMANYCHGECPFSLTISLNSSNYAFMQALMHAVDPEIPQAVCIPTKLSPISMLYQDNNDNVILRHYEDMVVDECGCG
Experimental: as §1

[5] = biological target: T1, GDF15-HIS (ACROBiosystems, CAT #: …); assay: ELISA on human GDF15, antibody after 2 weeks at 37 °C in plasma
Experimental: (§2) […] of the antibodies to be tested (final concentration 1 mg/ml) were added to 200 μl of plasma and PBS, respectively, tightly sealed and placed at 37° C. for 2 weeks. The change of protein binding activity was detected by ELISA.

[6] = biological target: T1, GDF15-HIS (ACROBiosystems, CAT #: …); assay: ELISA in stability test, antibody after 40 °C for 1 week; coated antigen not named
Experimental: An appropriate amount of each antibody was taken and adjusted to 10 mg/mL, and was placed at 40° C. for 1 and 2 weeks. Protein aggregation was detected using SEC-HPLC, and protein binding activity change was detected by ELISA.

[7] = biological target: T1, GDF15-HIS (ACROBiosystems, CAT #: …); assay: ELISA on human GDF15, antibody after 2 weeks at 37 °C in PBS; PBS, 37 C for 2 weeks (not plasma)
Experimental: as §2

[8] = biological target: T5, GDF15-mFC protein (human; mouse, UniProt Q99988 197-308); assay: blocking ELISA as in Example 4, GFRAL-hIgG1 Fc coated (competitor), GDF15-mFC mixed with antibody
T5 construct: extracellular domain;domain: IgG2a-FC; also called GDF15-mFc fusion protein
T5 sequence (looked up): T1 sequence (looked up)
Experimental: A fusion protein comprising the extracellular region of GFRAL protein (Genbank accession number NM_207410.2) and human IgG1-FC (Genbank accession number CAC20454.1) was diluted to […] with coating solution, followed by adding to ELISA plate at 50 μl/well and incubating at 4° C. overnight. The solution in the wells was discarded and the plate was washed 3 times with washing solution, each time for 3-5 minutes, and dried via tapping. 200 μl of blocking solution was added to each well followed by incubating at 4° C. overnight. The plate was washed 3 times with washing solution, and the coated plate may be stored at −20° C. or 4° C. for future use.
The antibodies to be tested, positive control antibody AV380-mIgG1 and blank control (PBS) were added to the wells. […] At the same time, GDF15-mFC protein (GDF15: Genbank accession number NM_004864.3; mFC: Genbank accession number AAH31470.1) was added at 20 ng/well and mixed with the antibodies to be tested. The wells were incubated at 37° C. for 1 hour, washed, and dried via tapping. Then the enzyme-labeled secondary antibody, horseradish peroxidase-labeled goat anti-mouse IgG (SIGMA, catalog number A9044-2 ml) was added to each well, at a dilution of 1:10000, 50-100 μl/well. The wells were incubated at 37° C. for 2 hours, washed, and dried via tapping. 100 μl of freshly prepared developing solution TMB was added to each well and incubated at 37° C. for 30 minutes. 2 mol/L H₂SO₄ was added to terminate the reaction, and the OD value was obtained on an enzyme-linked immunosorbent reader.
The experiment was performed as detailed in Example 4, except that the antibodies to be tested (the humanized antibodies), negative control antibody (hIgG1), and positive control antibodies Ponsegromab and AV380-hIgG1 were added to each well of the coated plate.

[9] = biological target: T1, GDF15-HIS (ACROBiosystems, CAT #: …); assay: ELISA in stability test, antibody before treatment; coated antigen not named; before treatment (unstressed antibody, 10 mg/mL)

Bottom (luciferase activity fold, fitted curve), HEK293 SRE-LUC2-cRET-GFRAL reporter cells [1]: 1.1 | IC50, luciferase in HEK293 SRE-LUC2-cRET-GFRAL reporter cells stimulated with GDF15-His 5 ng/ml [1]: 0.0225 µg/mL | EC50 [2]: 0.0816 µg/mL | OD450.Max [2]: 1.03 OD450 | binding result [3]: no binding (tested: 4 µg/ml) | binding result [4]: no binding (tested: 4 µg/ml) | EC50 [5]: 0.0372 µg/mL | EC50 [6]: 0.0641 µg/mL | EC50 [7]: 0.127 µg/mL | IC50 [8]: 0.253 µg/mL | OD450.Max [8]: 1.05 OD450 | EC50 [9]: 0.0588 µg/mL
B1: 53E5(hz) (antibody, human IgG1, kappa, V domains shown)
VH: QVQLQESGPGLVKPSETLSLTCTFSGFSLSTSGMGVGWIRQPPGKGLEWLAHILWDDVKRYNPALKSRLTISKDSSKSQISLKLSSVTAADTAVYYCVQMAWDWFAYWGQGTTVTVSS
VL: DIQMTQSPSSLSASVGDRVTITCKASQNVDTNVAWYQQKPGQSPKALIYSASYRSSGVPSRFSGSGSGTDFTLTISSLQPEDFATYYCQQYHSYPTFGQGTRLEIKR
notes: also called S3E5 (hz); humanized antibody 53E5
